The nanobody polyreactivity screen of Harvey et al. (2022)

Assay: yeast display, Sf9 membrane polyspecificity reagent, FACS + sequencing; frameworks hold sequencing errors
How it was run: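 Galactose-induced (36–48 hours) yeast carrying a synthetic nanobody display library were exposed to 10% biotinylated, detergent-solubilized Sf9 membrane reagent at 4 °C for 1 hour. FACS followed streptavidin microbead enrichment, using low and high (top ~1%) gates for expression (anti-HA) and reagent binding (streptavidin). Colony PCR, MiSeq 2 × 250 sequencing and CDR-length filtering followed. Labels for polyreactivity reflect the gate of origin.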
For “QVQLVESGGGLVQAGGSLRLSCAASGGIFWYYTMGWYRQAPGKERELVATLSSGGRTYYADSVKGRFTMSRDNAKNTVYLQMNSLKPEDTAVYYCAAVGWYHDYYWGQGTQVTVSS”, the “polyreactivity (PSR sort gate)” value was “high polyreactivity”. With “QVQLVESGGGLVQAGGSLRLSCAASGGIFWYYTRVWYRQAPGKERELVATISSGGRTYYADSVKGRFTISRDNAKNTVYLQMNSLKPEHTAVYYCAAVGWYHDYYWGQGTQVTVSS” the “polyreactivity (PSR sort gate)” value was “high polyreactivity”. With “QVQLVESGGGLVQAGGSLRLSCAASGGIFYFNAMGWYRQAPGKERELVASITWSGGNTYYADSVKGRFTISRDNAKNTVYLQMNSLKPEDTAVYYCAADTQEYRPTYDYWGQGTQVTVSS” the “polyreactivity (PSR sort gate)” value was “low polyreactivity”. With “QVQLVESGGGLVQAGGSLRLSCAASGGIFYFYAMGWYRQAPGKERELVAVITWSGGRTRYADSVKGRFTISRDNAKNTVYLQMNSLKPEDTAVYYCATYGVNPPGVEEYNYWGQGTQVTVSS” the “polyreactivity (PSR sort gate)” value was “high polyreactivity”. With “QVQLVESGGGLVQAGGSLRLSCAASGGIFYIYAMGWYRQAPGQERELVAAISWRGTSTYYADSVKGRFTISRDNAKNTVYLQMNRLKPEDTAVYYCAADFSYTSYATRYQGDYWGQGTQVTVSS” the “polyreactivity (PSR sort gate)” value was “low polyreactivity”. In the case of “QVQLVESGGGLVQAGGSLRLSCAASGGIFYLYAMGWYRQAPGKERELVAAISWSGTSTYYADSVKGRFTISRDNAKNTVYLQMNSLKPEDTAVYYCAADYERYYAKAINYDYWGQGTQVTVSS”, the “polyreactivity (PSR sort gate)” value is reported as “low polyreactivity”. With “QVQLVESGGGLVQAGGSLRLSCAASGGIFYPYAMGGYRQAPGKERELVASIDVSDGSTYYADSVKGRFTISRDNAKNTVYLQMNSLKPEDTAVYYCAADRYYKAIDFEGDYWGQGTQVTVSS” the “polyreactivity (PSR sort gate)” value was “low polyreactivity”. For “QVQLVESGGGLVQAGGSLRLSCAASGGIFYRYAMGWYRQAPGKERELVAAITRSGANTYYADSVKGRFTISRDNAKNTVYLLMNSLKPEDTAVYYCNARSYLYYSGQYDYWGQGTQVTVSS”, the “polyreactivity (PSR sort gate)” value was “high polyreactivity”. In the case of “QVQLVESGGGLVQAGGSLRLSCAASGGIFYRYAMGWYRQAPGKERELVAAITSSGGSTYYADSVKGRFTISRDNAKNTVYLQMNSLKPEDTAVYYCAADYGYYGAGSYFDRGDYWGQGTQVTVSS”, the “polyreactivity (PSR sort gate)” value is reported as “high polyreactivity”. For “QVQLVESGGGLVQAGGSLRLSCAASGGIFYRYVMRWYRQAPGKERELVAAITFSGGSTYYSDSVKGRFTISRDNAKNTVYLQMNSLKPEDTAVYYCAADTYYNPYWLDYWGQGTQVTVSS”, the “polyreactivity (PSR sort gate)” value was “low polyreactivity”. For “QVQLVESGGGLVQAGGSLRLSCAASGGIFYSYAMGWYRQAPGKERELVAAISGRGGSTYYADSVKGRFTISRDNAKNSVNLQMNSLKPEDTAVYYCNALGSQRYDYWGQGTQVTVSS”, the “polyreactivity (PSR sort gate)” value was “high polyreactivity”. With “QVQLVESGGGLVQAGGSLRLSCAASGGIFYSYAMGWYRQAPGKERELVAALSRGSRTYYADSVKGRFTISRDNAKNTVYLQMNSLKPEDTAVYYCAAYIVGSYRDGYWGQGTQVSVSS” the “polyreactivity (PSR sort gate)” value was “high polyreactivity”. With “QVQLVESGGGLVQAGGSLRLSCAASGGIFYTYALGWYRQAPGKERELVAGINWSGSSTYYADSVKGRFTISRDNAKNTVYLQMNSLKPEDTAVYYCAARSYSYSTGDYWGQGTQVTVSS” the “polyreactivity (PSR sort gate)” value was “low polyreactivity”. In the case of “QVQLVESGGGLVQAGGSLRLSCAASGGIFYTYAMGWYRQAPGKERELVAAISSSGGSTYYADSVKGRFTISRDNAKNTVYLQMNSLKPEDTAVYYCAKDSSTGAGARRRYGYWGQGTQVTVSS”, the “polyreactivity (PSR sort gate)” value is reported as “low polyreactivity”. For “QVQLVESGGGLVQAGGSLRLSCAASGGIFYVNAMGWYRQAPGKERELVAAITSDGVSTYYADSVKGRFTISRDNAKNTVYLQMNSLKPEDTAVYYCAARFQYYRKYDYWGQGTQVTVSS”, the “polyreactivity (PSR sort gate)” value was “low polyreactivity”. For “QVQLVESGGGLVQAGGSLRLSCAASGGIFYYYAMGWYRQAPGKERELVAAISWSGGSTYYADSVKGRFTISRDNAKNTVYLQMNSLKPDDTAVYYCATYSDFHYAQLEYDYWGQGTQVTVSS”, the “polyreactivity (PSR sort gate)” value was “low polyreactivity”. For “QVQLVESGGGLVQAGGSLRLSCAASGGIIGHYDMGWYRQAPGKERELVAAIIGGGSTNYADSVKGRFTISRDNAKNTVYLQMNSLKPEDTAVYYCNVAHGTQGWWGRNDYWGQGTQVTVSS”, the “polyreactivity (PSR sort gate)” value was “low polyreactivity”. In the case of “QVQLVESGGGLVQAGGSLRLSCAASGGIIQNYVMGWYRQAPGKEREFVATISQRGGITYYADSVKGRFTISRDNAKNTVYLQMNSLKPEDTAVYYCAARSYYAVYYWGQGTQVTVSS”, the “polyreactivity (PSR sort gate)” value is reported as “high polyreactivity”. For “QVQLVESGGGLVQAGGSLRLSCAASGGILDTYALGWYRQAPGKERELVAAITSGGNTNYADSVKGRFTISRDNAKNTVYLQMNSLKPEDTAVYYCAALYTVSYLTSPVSYRYDYWGQGSQVTVSS”, the “polyreactivity (PSR sort gate)” value was “low polyreactivity”. For “QVQLVESGGGLVQAGGSLRLSCAASGGINGTYTMGWYRQAPGKEREMGAAISKRGGNTYYADSVKGRFTISRDNAKNTVYLQMNSLKPEDTAVYYCAKRVSGSPPTAGSLSDSWGQGTQVTVSS”, the “polyreactivity (PSR sort gate)” value was “high polyreactivity”. With “QVQLVESGGGLVQAGGSLRLSCAASGGISDVYAMGWYRQAPGKERELVAAINWSGGSTYYADSVKGRFTISRDNAKNTVYLQMNSLKPEDTAVYYCAADPGIIGTFDWYDYWGQGTQVTVSS” the “polyreactivity (PSR sort gate)” value was “low polyreactivity”. For “QVQLVESGGGLVQAGGSLRLSCAASGGISSSNAMGWYRPAPGKERELVAGINSRGGSTYADSVKGRFTISRDNAKHTVYLQMNSLKPEDTAVYYCAAAPTFKWRRNNYDYWGQGTQVTVSS”, the “polyreactivity (PSR sort gate)” value was “high polyreactivity”. In the case of “QVQLVESGGGLVQAGGSLRLSCAASGGIYGNYAMGWYRQAPGKERELVADITTGGSTYYADSVKGRFTISRDNAKNTVYLQMNSLKPEDTAVYYCNARSLFHRFSSYKYDYWGQGTQVTVST”, the “polyreactivity (PSR sort gate)” value is reported as “high polyreactivity”. For “QVQLVESGGGLVQAGGSLRLSCAASGGIYYRYAKGWYRQAPGKERDLVAVISRSGSTYYADSVKGRFTMSRDNAQNTVYLQMNSLKPEDTAVYYCAAYSRCRYGLVPYDYWGQGTQVTVSS”, the “polyreactivity (PSR sort gate)” value was “high polyreactivity”. For “QVQLVESGGGLVQAGGSLRLSCAASGGNFTYNAMGWYRQAPGKERELVASISRGGGSTYYADSVKGRFTISRDNAKNTVYLQMNSLKPEDTAVYYCAASFIVGYYGYDYWGQGTQVTVSS”, the “polyreactivity (PSR sort gate)” value was “low polyreactivity”. With “QVQLVESGGGLVQAGGSLRLSCAASGGPFYTYTMGWYRQAPGKERELVAAISFSDASTYYADSVKGRFTISRDNAKNTVFLQMNSLKPEDTGVYYCNAGVLQWVYYPFDYWGQGTQVTVSS” the “polyreactivity (PSR sort gate)” value was “low polyreactivity”. With “QVQLVESGGGLVQAGGSLRLSCAASGGSFGMNAMGWYRKAPGKERELVASINANGGSTYYADSVKGRFTISRDNAKNTVYLQMNSLKPEDTAVYYCAVVVTRYNHNEYNSWGQGTQVTVSS” the “polyreactivity (PSR sort gate)” value was “low polyreactivity”. In the case of “QVQLVESGGGLVQAGGSLRLSCAASGGTFAFNAMGWYRQAPGKERELVATIRYSGGSTYADSVKGRFTISRDNAKNTVYLQMNSLKPEDTAVYYCAASGYYIFSWRYDYWGQGTQVTVSS”, the “polyreactivity (PSR sort gate)” value is reported as “low polyreactivity”. In the case of “QVQLVESGGGLVQAGGSLRLSCAASGGTFARNAMGWYRQAPGKERELVATITRRAGNTYYADSVKGRFTISRDNAKNTVYLEMNSLKREDTAVYYCAGVATWGFYPYLIPEVGNDYWGQGTQVTVSS”, the “polyreactivity (PSR sort gate)” value is reported as “high polyreactivity”. In the case of “QVQLVESGGGLVQAGGSLRLSCAASGGTFARYAMGWYRQAPGKERELVAAITRSGGTTYYADSVKGRFTISRDNAKNTVYLQMNSLKPEDTAVYYCAALPIVDYYGYGYWGQGTQVNVSS”, the “polyreactivity (PSR sort gate)” value is reported as “high polyreactivity”. In the case of “QVQLVESGGGLVQAGGSLRLSCAASGGTFAVNVMGWYRQAPGKERELVAAITSNGGSTYYADSVKGRFTISRDNAKNTVYLQMNSLTPEATAVYYCAAEGSGWYTGHYYYWGQGTQVTVSS”, the “polyreactivity (PSR sort gate)” value is reported as “low polyreactivity”. For “QVQLVESGGGLVQAGGSLRLSCAASGGTFAYYAMGWSRQAPGKERELVAAISSGGSTNYADSVKGRFTISRDNAKNTVNLQMNSLKPEDTAGYFCAADYYGPFYGYTYDYWGQGTQVTVSS”, the “polyreactivity (PSR sort gate)” value was “low polyreactivity”. With “QVQLVESGGGLVQAGGSLRLSCAASGGTFDNYAMGWYRQAPGKERELVAAISWSGDNTYYADSVKGRFTISRDNAKNTVYLQMNSLKPEDTAVYYCAAVYFWYSYDEGYTAYDYWGQGTQVTVSS” the “polyreactivity (PSR sort gate)” value was “low polyreactivity”. In the case of “QVQLVESGGGLVQAGGSLRLSCAASGGTFDPSAMGWYRQAPGKERDFVAAISWSGGRTYYADSVKGRFTISRDNAKNTVYLQMNSLKPEDTAVYYCAATSVGYAQRRYGYWGQGTQVTVSS”, the “polyreactivity (PSR sort gate)” value is reported as “high polyreactivity”. With “QVQLVESGGGLVQAGGSLRLSCAASGGTFDTYDMGWYRQAPGKERELVAAIRFGDGTTYYADSVKGRFTISRDNAKNTVYLQMNSLKPEDTAVYYCAAVFVWQPQYDQFRYDYWGQGTQVTVSS” the “polyreactivity (PSR sort gate)” value was “low polyreactivity”. In the case of “QVQLVESGGGLVQAGGSLRLSCAASGGTFDVNAMGWYRQAPGKERELVAAITWSGGNTYYADSVKGRFTISRDNAKNTVYLQMTSLKPEDTAVYYCATDFSPVYYTRYDYWGQGTQVTVSS”, the “polyreactivity (PSR sort gate)” value is reported as “low polyreactivity”. For “QVQLVESGGGLVQAGGSLRLSCAASGGTFDVYTMGWYRQAPGKERELVAAIDNGGSTNYADSVKGRFTISRDNAKNTVYLQMNSLKPEDTAVYYCAADEVYLFWGIAEFIYDYWGQGTQVTVSS”, the “polyreactivity (PSR sort gate)” value was “low polyreactivity”. In the case of “QVQLVESGGGLVQAGGSLRLSCAASGGTFDWNTMGWYRQAPGKERELVASITSGGRTNYAASVKGRFTISRDNAMNPVYLQLNSLKPEDTAVYYCANYPRSAYPWQTWVGQKFDYWGQGTQVTVSS”, the “polyreactivity (PSR sort gate)” value is reported as “low polyreactivity”. In the case of “QVQLVESGGGLVQAGGSLRLSCAASGGTFETYALGWYIPAPGKEREFVAANSRSGGSTYYADSVKGRFTISRDNAKNTVYLQMNSLKPEDTAVYYCAAEGYDLSSRVYGGYDYWGQGTQVTVSS”, the “polyreactivity (PSR sort gate)” value is reported as “low polyreactivity”. With “QVQLVESGGGLVQAGGSLRLSCAASGGTFFTNAMGWYRQAPGKERELVAVITGSGGRTYYADSVKGRFTISRDNAKNTVYLQMNSLKPEDTAVYYCAARGYSWGQGTQVTVSS” the “polyreactivity (PSR sort gate)” value was “high polyreactivity”. In the case of “QVQLVESGGGLVQAGGSLRLSCAASGGTFGQYAMGWYRLAPGKERELVAAITSSGGRKYYADSVKGRFTISRDNAKNTVYLQMNSLKPEDTAVYYCAADVQSRYVGEGDYWGQGTQVTVSS”, the “polyreactivity (PSR sort gate)” value is reported as “high polyreactivity”. In the case of “QVQLVESGGGLVQAGGSLRLSCAASGGTFGQYAMGWYRQAPGKERELVAAITSSGGRTYYADSVKGRFTISRDNAKNTVYLQMNSLKPEDTAVYYCAADVQSRYVGEGDYWGQGTQVTVSS”, the “polyreactivity (PSR sort gate)” value is reported as “high polyreactivity”. In the case of “QVQLVESGGGLVQAGGSLRLSCAASGGTFGSYAMGWYRQAPGKDRELVAAITGSGGRTYYADTVKGRFTISRDNAKNTVYLQMKSLKPEDTAVYYCNATRGIGTPYYYWGQGTQVTVSS”, the “polyreactivity (PSR sort gate)” value is reported as “high polyreactivity”.
